{
  "source": "the DeepSol protein solubility set",
  "data": [
    {"experiment": "soluble on expression in E. coli; label from the status in PepcDB or PDB records", "values": [
      {"sequence": "MIVGAGPAGIRAAAALADAGLHPVVIDEGNRAGGQIYRRPPDGFVRTPGQLYGSEAAKARALHAVFDRLTADGRLTHCAGSSVIAVQTGRLHVLGEGGVQVIFYDRLILATGASDRVAPVPGWQSAGVYSLGAAQIALKAQGVALGRRIVLMGSGPLLTLVGAQLIKAGADVAAVLDTSPWRQQMRGLWKLAARPLVALRGLALRARLGGRYHAGVSLEKIEADGQGVTAMRWRDAGGRQRLTPCDTIGMGWHLRAETHLADLAGCAFTYDEQWRQWLPKTDRMGRAGNGVYLAGDGVRLLGADGAEIAGRLAAAACLADLGFPAPTNAADLRELTRLERFAHGLVCAFPWPAAMVRALPDAAIVCRCENVTAGAVRDSVDLGGGEANRVKSLSRLGMGRCQGRYCHLAAVELAAAQSGCTPDAVGRFRGQAPARPAPIGAFLPEGLEHHHHHH", "soluble on expression in E. coli": "not soluble"},
      {"sequence": "MSPEYAMEGIFSVKSDVFSFGVLVLEIVSGKRNRGFHNSGQDNNLLGYTWENWKEGKGLEIVDSIIVDSSSSMSLFQPHEVLRCIQIGLLCVQERAEDRPKMSSVIVPFCTR", "soluble on expression in E. coli": "not soluble"},
      {"sequence": "MAHHHHHHSLAYGNINQPFSLESLPDELIPENLYQIETDSSRVFQRHQCRRLAHLLLFQLLKIAGKSTALLSQIHRTESGRPYFLDERIDFNISHSGDWVAVILDIRNEEKSAVGIDIEFPKIRNFTALMEHIAPKEEIDWFHHQQDSLNAFYRCWCLREAVLKSQGFGIVKLSNVRHFPEQQKIFSDYCPQGQLWFTDELPIYLAAFVNHQEKLPHFYEWNRESLQIKELEKYVLYEVNEG", "soluble on expression in E. coli": "soluble"},
      {"sequence": "MKYKIFASTTPQTEPVLNKLRAVLKTWQAVENGYEYVFVLGGDGFFVSTLANYNCDSCKVVGINTGHIGFYTSFNGDDLDENFISKLTSFEFKKINLLEVKTKNHSFLVLNELAVYTNTAYPINIFIDDNHWESYRGSGLLIGPRTGSTALAKSAKGAVIFPNVDVVQIIELNPLLHPNQITIQSPIILPMQTKVEFRIKKAFKAEQFPNFYADGIKLDLKNEDTSISFQLVLSRSMFHASLKTKDFIDKLKSTFIKQSLEHHHHHH", "soluble on expression in E. coli": "soluble"},
      {"sequence": "MPPNANSVGGPKKKNKKNHQRPQQQHQQTQPQPLPEEEQPENPIKKDPKPEVLEEVVEKNREEDKEKVEETVAPTIEKEKNISGDLLDFSSSDKSSLSSRPDSPEEDEDAVPVVNRTTTSPPTSPPSQTAVEQDSLQAEEMLVDMSLDDAPAAPPRKPHQRSAPPPIPSMNTIMTKPRTNSVSYIKGQVVRQSAVEQQTLANQVVDLVAMGMSKGQTQSSQITAEKAEWVQLTSVEKAGEPNERLEVLIVGLCRGYQIWTMSQSGEFEEVLSERQGPVRALKVLPNNLKLRGKKDSFADSRPLIAMVDASSHHPDRQYCSVTIISLLTGREVHKIKFEEPVCAVNVSDQFLVVSLANMAYAYDILTFNEVRTIRTAPSCENSPPALSLSCQLLAYADTSLDLNLQSSGGLAAEVEATSSEKYTDHIYTAMSYFSRSVKTISESVGAGSGSSTKANQPQGVITVLNLAVSGEDESDGVMCHYVAHVDPISYIAFSPDQRLVLSADANANVFNIFLLMPHATSSSLAAVQHLYKLNRGSTPAKVVSTAFSEDCRWLAITTNHATTHVFAVCPFGGKPNQRTHGDTFVNKESRFHRSAGLTDAADVTASIGPSKHRAMADSCSYTKEHPIAVNSPTLAKTNGNSRVGPFPPPLLLVATEKIKDSRYTKEDLSAWAADMTSFSYPAAQASSSPAVAARRRLEVSRMSVMFRMKSYNSTTSTKTAKTTKMLMSMSLVIAKVDPAQGVIVTQHDIKSLRKEGETNMEASPQISVAPVGGWILQRTKNNADMHAPMPSASPLMAFATVETVPAKRIGDEDVWTPHVETRTYLPPHRWIWQGPQFELFEYREDDQPSLMSPGNKGSNASFKSIPVLVGSEAVNITMKTIPADATRIECGSYTSANSYSIDQGSDQPVIGGYSSATNGDYIASIADAMRDISSDDDSTKKKSPKNDDLIEEFFDTESSTPFARNGSGSSSSTGATGGKSLKKKKTPPASAPLPTSSTKSSQKDKKVQNGRERSKDSDDFGTFDMDDI", "soluble on expression in E. coli": "not soluble"},
      {"sequence": "MGSDKIHHHHHHMSANTQSMIFTVYGDYIRHYGNQIWVGSLIRLLKEFGHNEQAVRVAVSRMVKQGWLTSQKQGTKSFYSLTPRGVERMEEAARRIYKSTPHVWDGKWRTLMYTIPEDKRQIRDELRKELSWSGFGNLSNGVWISPNPLEKEAERLIEAYDIKAYIDFFVGEYHGPQQDQSLVERAFPLDELQERYEQFIAEYSRRYIVHQSRIQLGEMDEEQCFVERTTLVHEYRKFLFTDPGLPQELLPDEWSGHHAALLFEQYYRLLAEPASRFFESIFRETHDVTQKSADYDASEHPLFAER", "soluble on expression in E. coli": "not soluble"},
      {"sequence": "MLTIARRFSGSSICRKQITVGSNNIQVIKNIQDREYEAIWKTIGSTRSDLKKDDIKKFKEAWGNDYHQTLTFLKDSDRLIASNSHVVFRPLKDSKGLENLVFRGNLWISPDVRGSEIMDITDKQSYDVGFSVGNNSMAYATKKTMDQYKNLTGSMDHLHKYYVSNYDFGDLCIPKDLDTSGIVVKNARDVPDTDILKYDAKVFKYERSKYVLGQIREDFGRVAYNEKGDVIGIGAISVYPSGECAITPMYADDIRIARTILKNILEEMTLDAEKYWRLQIRSHDQHTGSYGWIRPFLSTMTHRSEVCTLMCDHKEKGMDFSKVYSTFHADNCPI", "soluble on expression in E. coli": "not soluble"},
      {"sequence": "MISWEIEELDREIGKIKKHSLILIHEEDASSRGKDILFYILSRKLKSDNLVGMFSISYPLQLIIRILSRFGVDVIKYLENHRLAIVDTFGSFHGIKATMPGVWYLEGMLSSETLPIKYAKAVEDHKKVWMDLNLFEGRELYGFAISMSGYLEVFTPEETLRYLETSAEVRYGHPAYKKYPRGTNFWLWEGVKDKRVLLSVYRRADYVLKTRSSLGENGIKRELLVIKTPKPIEELVRFEYEFKGNEPKLRRVD", "soluble on expression in E. coli": "soluble"},
      {"sequence": "MAKIGFVSLGCPKALVDSEQILSRLKALGYETSPSYEEAELVIVNTCGFINEAVEESLEAIGEALKENGKVVVTGCLGARPEKIRERHPQVLAVTGPGEVERVLEAVQEVLPAPRDPFLDLIPPQVKLTPRHYAYVKLSEGCDHRCSFCIIPKLRGRLRSRDAADVLAEAARLVATGTKELLLVAQDLSAYGVDLGHRESLWGDRPVRAELKDLLTHMAELGVWIRLHYVYPYPHVKDLLPLMAEGKVLPYLDVPLQHASPRILRLMRRPGGYESHLKTLKAWREVVPELALRSTFIVGFPGETEEDFQILLDFLEEAELDRVGVFAYSPVEGAEANRLPDPVPEEVKEERKARLLEVQARVSLRKNQRFVGKTLEVLVDELPEPGLAVGRTYRDAPGVDGVVYVETDGTVRVGERIPVRILRADTYDLHGVQAAAALEHHHHHH", "soluble on expression in E. coli": "soluble"},
      {"sequence": "WVPHELTENQKNRRFEVSSSLILRNHNEPFLDRIVTCDEKWILYDNRRRSAQWLDQEEAPKHFPKPILHPKKVMVTIWWSAAGLIHYSFLNPGETITSEKYAQEIDEMNQKLQRLQLALVNRKGPILLHDNARPHVAQPTLQKLNELGYEVLPHPPYSPDLLPTNYHVFKHLNNFLQGKRFHNQQDAENAFQEFVESQSTDFYATGINQLISRWQKCVDCNGSYFD", "soluble on expression in E. coli": "soluble"},
      {"sequence": "QIDYMTNSDMGYDYRNKLIIDVFGLDPQIVSTMRTEIAKIPGITGIGLTRGTPLNGGNNNSSEYRGRPLSMQIFSIDSVALSLFDLKMKPNGRKADKPDRTLYLSRSAYNDFDVANLPDGVIHWGKAGEFYYCGDAPEVHFGGFKEPHPSYLFIPYPQSSAWSWSVLVGYSEGADPEQLIQSIQAVYSRITGQPYTEILRSEDIIASHSEEERSLS", "soluble on expression in E. coli": "not soluble"},
      {"sequence": "GPLGSMINAKTKVIGLIGHPVEHSFSPIMHNAAFKDKGLNYVYVAFDVLPENLKYVIDGAKALGIVGFNVTIPHKIEIMKYLDEIDKDAQLIGAVNTIKIEDGKAIGYNTDGIGARMALEEEIGRVKDKNIVIYGAGGAARAVAFELAKDNNIIIANRTVEKAEALAKEIAEKLNKKFGEEVKFSGLDVDLDGVDIIINATPIGMYPNIDVEPIVKAEKLREDMVVMDLIYNPLETVLLKEAKKVNAKTINGLGMLIYQGAVAFKIWTGVEPNIEVMKNAIIDKITK", "soluble on expression in E. coli": "soluble"},
      {"sequence": "MKISTKGRYGLTIMIELAKKYGDRPISLRSIAKANNLSEHYLEQLVTPLRNAGLVKSIRGAYGGYVLAEHPAKITAGDILRVLEGPLTPVEELEEEEPAKRELWIRIRDAVEEVLDSTTLEDLAKYSDGDEGAYMFYI", "soluble on expression in E. coli": "not soluble"},
      {"sequence": "MSLRNKLLTIFDSVDESARIKDAFITQLESSITDAGVLALKLELLDFLTSNLSNYSRTMTISHLLLGFQVSNVISLGPNLATFISSGTSLLDSLISVLEASLNSITKDNIDYAPMRLATAALEIILKLCRNPLTSGLLYSYLIKENFFERIMILDPQVTRFTTWNGSPFDNSTEEKCKNFIESESVGAFLSFLAYRNYWTQYLGLFIHKISFSGTKSEVLTYVNYLISNTMYSVRLFSFLDPLNYGNICEPKETLSIFTNVPLNLEQVTLNKYCSGNIYDFHKMENLMRLIKRVRAESLHSNEGHHHHHH", "soluble on expression in E. coli": "soluble"},
      {"sequence": "MSLRDSAFFETGEKHFRTLCSSCHSAHQEIYGPMLGSISKKRKESWLIPFIRNSQEVIRSGDAYAKALFEKFDHQIMPPFEQLSDQDIKAILYYLEIESLQPQEYLNDAAIPPTSDSSVIRGKQEFLDHCSMCHFVHKESTFAPALGSVTKRHSREWLISFIQNSEKKINQGDAYAVHLFNQFDQHVMTNMDFLPIEEINAILDYIEFASTVDVAEGHHHHHH", "soluble on expression in E. coli": "not soluble"},
      {"sequence": "MKIFFITSNPGKVREVANFLGTFGIEIVQLKHEYPEIQAEKLEDVVDFGISWLKGKVPQPFMIEDSGLFIESLKGFPGVYSSYVYRTIGLEGILKLMEGAEDRRAYFKSVIGFYIDGKAYKFSGVTWGRISNEKRGTHGFGYDPIFIPEGSEKTFAEMTIEEKNALSHRGKALKAFFEWLKVNLKY", "soluble on expression in E. coli": "soluble"},
      {"sequence": "MRVLIVKTSSMGDVLHTLPALTDAQQAIPEIKFDWVVEEGFAQIPSWHAAVERVIPVAIRRWRKAWFSAPIKAERKAFREALQAENYDAVIDAQGLVKSAALVTRLAHGVKHGMDWQTAREPLASLFYNRKHHIAKQQHAVERTRELFAKSLGYSKPQTQGDYAIAQHFLTNLPTDAGEYAVFLHATTRDDKHWPEEHWRELIGLLADSGIRIKLPWGAPHEEERAKRLAEGFAYVEVLPKMSLEGVARVLAGAKFVVSVDTGLSHLTAALDRPNITVYGPTDPGLIGGYGENQVECRSTSMSLADLPAQTVFQNLNLEIITNKLTSEIR", "soluble on expression in E. coli": "not soluble"},
      {"sequence": "SNAMNQTLLSDFGTPVERVERAIDALRNGRGVMVLDDESRENEGDMVFAAEAMTLEQMALTIRHGSGIVCLCITDERRQQLDLPMMVTHNSSQFQTAFTVTIEAAEGVTTGVSAADRLTTIRKAIADNAKPADLNRPGHVFPLRGQPGGVLSRRGHTEASIDLATLAGYKPAGVLCELTNDDGSMAHAPEVIAFAKLHDMPVVTIDDLAAYLQSRAKKAS", "soluble on expression in E. coli": "soluble"},
      {"sequence": "MSLSLNFLDFEKPIVELETKIQALRDVSRHSTSASVDLDKELEQLEKKSLELKKKIFSDLGAWQVAQLARHPQRPYTLDYLKHIFTEFDELAGDRAYADDKAIVGGIARLEGRSVMVIGHQKGRETREKVKRNFGMPKPEGYRKALRLMEMAERFNMPIITFIDTAGAYPGVGAEERGQSEAIAKNLKVMSGLKVPVICNVVGEGGSGGALAIGVGDYVNMLQYSTYSVISPEGCASILWRDSDKAPQAAEAMGLIAPRLKELELIDEIIEEPLGGAHRDHKQTAENVKATLLRQLADLDALDHENLLERRYQRLMNYGYCEGHHHHHH", "soluble on expression in E. coli": "soluble"},
      {"sequence": "MAHHHHHHMRVRHKVRNAVLLKGGEADTVKPLFLLNKIKNRKLQKRNNVTLHMDNSNEDTSRLSLLKNLDDESKVITQSPEWNEKMPLLEITNLHAMEVEGGKEILKGINLTIFLGEKHTIMGRNGSGKSTLAKVIAGHPYYKVTSGTIKFKGLNLSELPVNVRSLCGIFLAFQYPVELPMVKNNEFLRAALNSHRRQRNEPEISATEFDLLMIEEIKKVGLSSEFLDRPVNYGFSGGEKKRNEILQMLILKPSFCILDETDSGLDVDSFKLTSNVITNFSNEKNSFLIVTHYKKLLELLRPNFIHIMHQGKIIESGDYSLVDKIEAKGYAQFVKDS", "soluble on expression in E. coli": "not soluble"}
    ]}
  ]
}
